From PMC3711130
Like-named read-outs stand apart in the source and are kept apart here.

Tests used:
[1] = target: His-Tm (wild-type α-tropomyosin homodimer with a histidine tag) (rat); assay: cross-linking
[2] = target: pyr-actin·WT-Tm·hcTn thin filament (rabbit | rat | human) (UniProt P68135); assay: stopped-flow fluorescence
[3] = target: pyr-actin·D175N-Tm·hcTn thin filament (rabbit | rat | human) (UniProt P68135); assay: stopped-flow fluorescence
[4] = target: pyr-actin·E180G-Tm·hcTn thin filament (rabbit | rat | human) (UniProt P68135); assay: stopped-flow fluorescence
[5] = target: pyr-actin·WT-E180G-Tm·hcTn thin filament (rabbit | rat | human) (UniProt P68135); assay: stopped-flow fluorescence
[6] = target: pyr-actin·WT-D175N-Tm·hcTn thin filament (rabbit | rat | human) (UniProt P68135); assay: stopped-flow fluorescence
[7] = target: pyr-actin·WT-Tm·hcTn thin filament (rabbit | rat | human) (UniProt P68135); assay: stopped-flow fluorescence; remark: listed apart in the source

Sequence of myosin subfragment 1 (native rabbit skeletal) (domain or fragment) (Q28641 whole entry, the tested form may be a part): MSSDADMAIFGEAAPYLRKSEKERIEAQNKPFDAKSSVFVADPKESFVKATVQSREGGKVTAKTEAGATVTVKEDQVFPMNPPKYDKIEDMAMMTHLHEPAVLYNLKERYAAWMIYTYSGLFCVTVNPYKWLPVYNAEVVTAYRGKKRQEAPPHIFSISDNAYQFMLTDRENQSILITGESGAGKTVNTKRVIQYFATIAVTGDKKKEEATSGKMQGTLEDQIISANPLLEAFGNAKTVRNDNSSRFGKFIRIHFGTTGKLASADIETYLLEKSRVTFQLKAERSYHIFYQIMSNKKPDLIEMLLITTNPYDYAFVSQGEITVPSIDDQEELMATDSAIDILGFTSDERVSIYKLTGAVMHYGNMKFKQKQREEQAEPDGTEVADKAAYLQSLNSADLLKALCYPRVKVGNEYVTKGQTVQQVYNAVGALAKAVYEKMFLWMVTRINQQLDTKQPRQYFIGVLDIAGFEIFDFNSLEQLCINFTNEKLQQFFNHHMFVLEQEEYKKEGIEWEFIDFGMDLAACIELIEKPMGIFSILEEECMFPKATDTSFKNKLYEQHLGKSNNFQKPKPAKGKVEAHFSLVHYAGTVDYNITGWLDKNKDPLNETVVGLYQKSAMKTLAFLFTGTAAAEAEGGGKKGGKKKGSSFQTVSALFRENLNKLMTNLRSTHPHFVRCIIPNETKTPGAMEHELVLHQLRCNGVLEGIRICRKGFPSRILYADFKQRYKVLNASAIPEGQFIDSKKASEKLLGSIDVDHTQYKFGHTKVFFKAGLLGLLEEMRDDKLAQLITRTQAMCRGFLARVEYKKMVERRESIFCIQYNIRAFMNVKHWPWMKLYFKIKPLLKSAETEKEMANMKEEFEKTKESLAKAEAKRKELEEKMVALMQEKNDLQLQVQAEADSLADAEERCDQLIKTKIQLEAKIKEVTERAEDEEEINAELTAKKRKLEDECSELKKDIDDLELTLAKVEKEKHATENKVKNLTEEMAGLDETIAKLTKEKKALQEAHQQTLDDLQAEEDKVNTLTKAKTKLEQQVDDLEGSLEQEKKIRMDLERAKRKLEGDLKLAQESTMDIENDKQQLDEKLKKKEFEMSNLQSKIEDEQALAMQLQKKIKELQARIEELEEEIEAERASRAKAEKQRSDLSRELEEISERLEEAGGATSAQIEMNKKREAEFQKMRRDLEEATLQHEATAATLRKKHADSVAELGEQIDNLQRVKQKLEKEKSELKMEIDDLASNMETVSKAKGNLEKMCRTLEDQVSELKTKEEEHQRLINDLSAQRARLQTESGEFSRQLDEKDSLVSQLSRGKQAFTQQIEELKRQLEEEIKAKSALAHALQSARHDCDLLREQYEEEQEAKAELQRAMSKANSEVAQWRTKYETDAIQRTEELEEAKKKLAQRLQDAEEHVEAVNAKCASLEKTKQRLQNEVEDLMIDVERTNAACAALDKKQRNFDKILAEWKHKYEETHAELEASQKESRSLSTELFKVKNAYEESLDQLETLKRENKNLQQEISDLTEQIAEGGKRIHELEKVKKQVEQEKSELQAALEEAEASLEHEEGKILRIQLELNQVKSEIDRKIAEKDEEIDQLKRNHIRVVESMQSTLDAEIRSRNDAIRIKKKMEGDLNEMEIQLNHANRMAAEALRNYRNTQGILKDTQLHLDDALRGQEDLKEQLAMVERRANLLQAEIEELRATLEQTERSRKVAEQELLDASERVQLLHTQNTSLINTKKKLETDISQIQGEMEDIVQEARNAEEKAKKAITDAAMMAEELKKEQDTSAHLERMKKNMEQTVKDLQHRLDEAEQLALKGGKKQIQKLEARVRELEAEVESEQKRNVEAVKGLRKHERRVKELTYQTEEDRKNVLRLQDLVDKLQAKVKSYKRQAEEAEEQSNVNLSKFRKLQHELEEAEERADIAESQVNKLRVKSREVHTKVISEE

| stoichiometry N [1] | kobs with Ca2+ [2] [s^–1] | kobs without Ca2+ [2] [s^–1] | kobs with Ca2+ [3] [s^–1] | kobs without Ca2+ [3] [s^–1] | kobs with Ca2+ [4] [s^–1] | kobs without Ca2+ [4] [s^–1] | kobs with Ca2+ [5] [s^–1] | kobs without Ca2+ [5] [s^–1] | kobs with Ca2+ [6] [s^–1] | kobs without Ca2+ [6] [s^–1] | kobs with Ca2+ [7] [s^–1] | kobs without Ca2+ [7] [s^–1] | Substance |
| --- | --- | --- | --- | --- | --- | --- | --- | --- | --- | --- | --- | --- | --- |
| 1 | – | – | – | – | – | – | – | – | – | – | – | – | D175N-Tm (α-tropomyosin homodimer with the D175N mutation in both chains) (natural protein) |
| – | 7.68 | 2.21 | 8.48 | 2.41 | 8.46 | 2.71 | 7.58 | 2.31 | 8 | 2.31 | 7 | 2 | myosin subfragment 1 (native rabbit skeletal) (domain or fragment) |
